In this test the target is wild-type unmodified 147 bp nucleosome (nucleosome core particle), P04908;P62807;Q71DI3;P62805. Briefly: EMSA. The settings on record: chain shown with the change.

B1: KDM5A^CAT (lysine demethylase 5A, residues 1-801), P29375 R264A; R265A; R266A; R271A (protein)
chain: MAGVGPGGYAAEFVPPPECPVFEPSWEEFTDPLSFIGRIRPLAEKTGICKIRPPKDWQPPFACEVKSFRFTPRVQRLNELEAMTRVRLDFLDQLAKFWELQGSTLKIPVVERKILDLYALSKIVASKGGFEMVTKEKKWSKVGSRLGYLPGKGTGSLLKSHYERILYPYELFQSGVSLMGVQMPNLDLKEKVEPEVLSTDTQTSPEPGTRMNILPKRTRRVKTQSESGDVSRNTELKKLQIFGAGPKVVGLAMGTKDKEDEVTAAAKVTNRSDAFNMQMRQRKGTLSVNFVDLYVCMFCGRGNNEDKLLLCDGCDDSYHTFCLIPPLPDVPKGDWRCPKCVAEECSKPREAFGFEQAVREYTLQSFGEMADNFKSDYFNMPVHMVPTELVEKEFWRLVSSIEEDVIVEYGADISSKDFGSGFPVKDGRRKILPEEEEYALSGWNLNNMPVLEQSVLAHINVDISGMKVPWLYVGMCFSSFCWHIEDHWSYSINYLHWGEPKTWYGVPSHAAEQLEEVMRELAPELFESQPDLLHQLVTIMNPNVLMEHGVPVYRTNQCAGEFVVTFPRAYHSGFNQGYNFAEAVNFCTADWLPIGRQCVNHYRRLRRHCVFSHEELIFKMAADPECLDVGLAAMVCKELTLMTEEETRLRESVVQMGVLMSEEEVFELVPDDERQCSACRTTCFLSALTCSCNPERLVCLYHPTDLCPCPMQKKCLRYRYPLEDLPSLLYGVKVRAQSYDTWVSRVTEALSANFNHKKDLIELRVMLEDAEDRKYPENDLFRKLRDAVKEAETCASVAQLL
Consider B1, for which the Kd was 10.3 µM.

B2: KDM5A^CAT (lysine demethylase 5A, residues 1-801), P29375 R210A; R217A; R219A; R220A; R232A; R264A; R265A; R266A; R271A; R280A; R282A (protein)
chain: MAGVGPGGYAAEFVPPPECPVFEPSWEEFTDPLSFIGRIRPLAEKTGICKIRPPKDWQPPFACEVKSFRFTPRVQRLNELEAMTRVRLDFLDQLAKFWELQGSTLKIPVVERKILDLYALSKIVASKGGFEMVTKEKKWSKVGSRLGYLPGKGTGSLLKSHYERILYPYELFQSGVSLMGVQMPNLDLKEKVEPEVLSTDTQTSPEPGTAMNILPKATAAVKTQSESGDVSANTELKKLQIFGAGPKVVGLAMGTKDKEDEVTAAAKVTNASDAFNMQMAQAKGTLSVNFVDLYVCMFCGRGNNEDKLLLCDGCDDSYHTFCLIPPLPDVPKGDWRCPKCVAEECSKPREAFGFEQAVREYTLQSFGEMADNFKSDYFNMPVHMVPTELVEKEFWRLVSSIEEDVIVEYGADISSKDFGSGFPVKDGRRKILPEEEEYALSGWNLNNMPVLEQSVLAHINVDISGMKVPWLYVGMCFSSFCWHIEDHWSYSINYLHWGEPKTWYGVPSHAAEQLEEVMRELAPELFESQPDLLHQLVTIMNPNVLMEHGVPVYRTNQCAGEFVVTFPRAYHSGFNQGYNFAEAVNFCTADWLPIGRQCVNHYRRLRRHCVFSHEELIFKMAADPECLDVGLAAMVCKELTLMTEEETRLRESVVQMGVLMSEEEVFELVPDDERQCSACRTTCFLSALTCSCNPERLVCLYHPTDLCPCPMQKKCLRYRYPLEDLPSLLYGVKVRAQSYDTWVSRVTEALSANFNHKKDLIELRVMLEDAEDRKYPENDLFRKLRDAVKEAETCASVAQLL
In turn, B2 returned a dissociation constant (Kd) of 14 µM. Besides, for the setting “0-32 µM KDM5A^MutR titration”, the Kd amounted to 14 µM.

B3: KDM5A^CAT (lysine demethylase 5A, residues 1-801), P29375 R280A; R282A (protein)
chain: MAGVGPGGYAAEFVPPPECPVFEPSWEEFTDPLSFIGRIRPLAEKTGICKIRPPKDWQPPFACEVKSFRFTPRVQRLNELEAMTRVRLDFLDQLAKFWELQGSTLKIPVVERKILDLYALSKIVASKGGFEMVTKEKKWSKVGSRLGYLPGKGTGSLLKSHYERILYPYELFQSGVSLMGVQMPNLDLKEKVEPEVLSTDTQTSPEPGTRMNILPKRTRRVKTQSESGDVSRNTELKKLQIFGAGPKVVGLAMGTKDKEDEVTRRRKVTNRSDAFNMQMAQAKGTLSVNFVDLYVCMFCGRGNNEDKLLLCDGCDDSYHTFCLIPPLPDVPKGDWRCPKCVAEECSKPREAFGFEQAVREYTLQSFGEMADNFKSDYFNMPVHMVPTELVEKEFWRLVSSIEEDVIVEYGADISSKDFGSGFPVKDGRRKILPEEEEYALSGWNLNNMPVLEQSVLAHINVDISGMKVPWLYVGMCFSSFCWHIEDHWSYSINYLHWGEPKTWYGVPSHAAEQLEEVMRELAPELFESQPDLLHQLVTIMNPNVLMEHGVPVYRTNQCAGEFVVTFPRAYHSGFNQGYNFAEAVNFCTADWLPIGRQCVNHYRRLRRHCVFSHEELIFKMAADPECLDVGLAAMVCKELTLMTEEETRLRESVVQMGVLMSEEEVFELVPDDERQCSACRTTCFLSALTCSCNPERLVCLYHPTDLCPCPMQKKCLRYRYPLEDLPSLLYGVKVRAQSYDTWVSRVTEALSANFNHKKDLIELRVMLEDAEDRKYPENDLFRKLRDAVKEAETCASVAQLL
B3 gave a Kd of 7.8 µM.

B4: KDM5A^CAT (lysine demethylase 5A, residues 1-801), P29375 R217A; R219A; R220A (protein)
chain: MAGVGPGGYAAEFVPPPECPVFEPSWEEFTDPLSFIGRIRPLAEKTGICKIRPPKDWQPPFACEVKSFRFTPRVQRLNELEAMTRVRLDFLDQLAKFWELQGSTLKIPVVERKILDLYALSKIVASKGGFEMVTKEKKWSKVGSRLGYLPGKGTGSLLKSHYERILYPYELFQSGVSLMGVQMPNLDLKEKVEPEVLSTDTQTSPEPGTRMNILPKATAAVKTQSESGDVSRNTELKKLQIFGAGPKVVGLAMGTKDKEDEVTRRRKVTNRSDAFNMQMRQRKGTLSVNFVDLYVCMFCGRGNNEDKLLLCDGCDDSYHTFCLIPPLPDVPKGDWRCPKCVAEECSKPREAFGFEQAVREYTLQSFGEMADNFKSDYFNMPVHMVPTELVEKEFWRLVSSIEEDVIVEYGADISSKDFGSGFPVKDGRRKILPEEEEYALSGWNLNNMPVLEQSVLAHINVDISGMKVPWLYVGMCFSSFCWHIEDHWSYSINYLHWGEPKTWYGVPSHAAEQLEEVMRELAPELFESQPDLLHQLVTIMNPNVLMEHGVPVYRTNQCAGEFVVTFPRAYHSGFNQGYNFAEAVNFCTADWLPIGRQCVNHYRRLRRHCVFSHEELIFKMAADPECLDVGLAAMVCKELTLMTEEETRLRESVVQMGVLMSEEEVFELVPDDERQCSACRTTCFLSALTCSCNPERLVCLYHPTDLCPCPMQKKCLRYRYPLEDLPSLLYGVKVRAQSYDTWVSRVTEALSANFNHKKDLIELRVMLEDAEDRKYPENDLFRKLRDAVKEAETCASVAQLL
B4 had a Kd of 12 µM.

Source of the values: PMC12443421.
